Results as given in patent publication US20160159906A1 (Genentech, published 2016).
Where a chain is given by its changes, count along the chain named.

T1: human CD79b (human, UniProt P40259 29-229)
T1 construct: Endogenous CD79b on BJAB / BJAB-luciferase cells (FACS) and on human B cells (killing assays); also called huCD79b; Igβ
T1 sequence: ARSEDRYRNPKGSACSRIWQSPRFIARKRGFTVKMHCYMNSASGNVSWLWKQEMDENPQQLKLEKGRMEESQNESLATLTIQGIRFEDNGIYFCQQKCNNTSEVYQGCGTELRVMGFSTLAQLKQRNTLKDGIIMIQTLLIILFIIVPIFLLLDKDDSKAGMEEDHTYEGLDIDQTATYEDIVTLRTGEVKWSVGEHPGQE

T2: human CD79b fused with an Fc domain at the C-terminus (printed at paragraph 314 as Human CD79a fused with an Fc … (human, UniProt P40259 29-159))
T2 construct: also called CD79b immobilized at a low density; Fc-tagged ECD of human CD79b; not shown: Fc domain at the C-terminus
T2 sequence: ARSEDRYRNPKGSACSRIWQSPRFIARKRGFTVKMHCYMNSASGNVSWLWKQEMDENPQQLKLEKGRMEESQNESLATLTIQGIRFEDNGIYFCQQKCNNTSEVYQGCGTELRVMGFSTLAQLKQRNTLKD

B1: Peptide 2, 21-amino acid peptide AKSEDLYPNPKGSACSRIWQS that correspond to the NH2 termini of cynoCD79b (peptide)
peptide: AKSEDLYPNPKGSACSRIWQS
B2: bispecific bisfab anti-CD79b/CD3 (CD79b.A7/UCHT1.v9) (bispecific antibody, V domains shown)
VH 1: QVQLQQPGVELVRPGASVKLSCKASGYTFTTYWMNWVRQRPGQGLDWIGMIDPSDSETHYNQMFKDKATLTVDKSSSTAYIQLNSLTSEDSAVYYCSRSLAFWGQGTLVTVSA
VL 1: not shown
VH 2: EVQLVESGGGLVQPGGSLRLSCAASGYSFTGYTMNWVRQAPGKDLEWVALINPYKGVSTYNQKFKDRFTISVDKSKNTAYLQMNSLRAEDTAVYYCARSGYYGDSDWYFDVWGQGTLVTVSS
VL 2: DIQMTQSPSSLSASVGDRVTITCRASQDIRNYLNWYQQKPGKAPKLLIYYTSRLESGVPSRFSGSGSGTDYTLTISSLQPEDFATYYCQQGNTLPWTFGQGTKLELK
notes: Bisfab format; constant parts and the link between the two Fabs are not described; also called CD79b.A7/UHT1.v9
B3: chCD79b.A7 (antibody, V domains shown)
VH: B2 VH 1
VL: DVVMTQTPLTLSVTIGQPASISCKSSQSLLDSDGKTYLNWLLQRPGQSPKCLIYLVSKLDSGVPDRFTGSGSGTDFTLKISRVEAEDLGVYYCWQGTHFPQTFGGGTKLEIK
notes: Chimeric form of CD79b.A7 by its prefix ch
B4: CD79b.A7, dual arm, bivalent anti-CD79b antibody (antibody, V domains shown)
VH: B2 VH 1
VL: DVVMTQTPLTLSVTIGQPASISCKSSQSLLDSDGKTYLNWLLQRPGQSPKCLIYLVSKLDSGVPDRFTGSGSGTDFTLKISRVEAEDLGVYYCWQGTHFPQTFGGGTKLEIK
notes: Mouse hybridoma clone; also called CD79.A7; muCD79b.A7
B5: SN8.new/UCHT1.v9 bispecific K&H antibody (bispecific antibody, V domains shown)
VH 1: EVQLVESGGGLVQPGGSLRLSCAASGYTFSSYWIEWVRQAPGKGLEWVGEILPGGGDTNYNEIFKGRFTISADTSKNTAYLQMNSLRAEDTAVYYCTRRVPIRLDYWGQGTLVTVSS
VL 1: DIQMTQSPSSLSASVGDRVTITCKASQSVDYDGDSFLNWYQQKPGKAPKLLIYAARKLGRGVPSRFSGSGSGTDFTLTISSLQPEDFATYYCQQSNEDPLTFGQGTKVEIK
VH 2: B2 VH 2
VL 2: B2 VL 2
B6: Peptide 1, 21-amino acid peptide ARSEDRYRNPKGSACSRIWQS that corresponds to the NH2 termini of huCD79b (peptide)
peptide: ARSEDRYRNPKGSACSRIWQS
B7: CD79b.A7.v14 (antibody, V domains shown)
VH: EVQLVQSGAEVKKPGASVKVSCKASGYTFTTYWMNWVRQAPGQGLEWIGMIDPSDSETHYNQMFKDRATLTVDTSTSTAYLELSSLRSEDTAVYYCSRSLAFWGQGTLVTVSS
VL: DIVMTQTPLSLPVTPGQPASISCKSSQSLLDSDGKTYLNWLLQKPGQSPQSLIYLVSKLDSGVPDRFSGSGSGTDFTLKISRVEAEDVGVYYCWQGTHFPQTFGQGTKVEIK
notes: VH1c + VL4; bivalent, dual arm IgG; also called huCD79b.A7.v14; CD79.A7.v14
B8: monovalent CD79.A7.v14 in the K&H TDB format CD79.A7.v14/40G5c (bispecific antibody, V domains shown)
VH 1: B7 VH
VL 1: B7 VL
VH 2: EVQLVQSGAEVKKPGASVKVSCKASGYTFTNYYIHWVRQAPGQGLEWIGWIYPGDGNTKYNEKFKGRATLTADTSTSTAYLELSSLRSEDTAVYYCARDSYSNYYFDYWGQGTLVTVSS
VL 2: DIVMTQSPDSLAVSLGERATINCKSSQSLLNSRTRKNYLAWYQQKPGQPPKLLIYWASTRESGVPDRFSGSGSGTDFTLTISSLQAEDVAVYYCTQSFILRTFGQGTKVEIK
notes: also called CD79b.A7.v14/40G5c K&H
B9: CD79b.A7.v20 (antibody, V domains shown)
VH: B7 VH with L70I
VL: B7 VL
notes: VH1e + VL4; assessed as IgG
B10: CD79b.A7.v19 (antibody, V domains shown)
VH: B7 VH with T74K
VL: B7 VL with I2V
notes: VH1d + VL5; assessed as IgG
B11: CD79b.A7.v21 (antibody, V domains shown)
VH: B7 VH with A68V
VL: B7 VL
notes: VH1f + VL4; assessed as IgG
B12: CD79b.A7.v15 (antibody, V domains shown)
VH: B7 VH
VL: B7 VL with I2V
notes: VH1c + VL5; assessed as IgG
B13: CD79b.A7.v18 (antibody, V domains shown)
VH: B7 VH with T74K
VL: B7 VL
notes: VH1d + VL4; assessed as IgG

Tests used:
[1] = biological target: B4; assay: FACS on BJAB cells, peptide competition of CD79b.A7 binding (data not shown)
human CD79b [2] = biological target: T1, human CD79b; assay: FACS on BJAB cells (FIG. 3B); bispecific bisfab, monovalent for CD79b
Method: (§1) BJAB cells were incubated with anti-CD79b antibody (bivalent, dual arm antibody) or anti-CD79b/CD3 TDB antibody as indicated for 30 minutes on ice. At the end of the incubation, cells were washed with ice cold FACS buffer (lx PBS, 2% BSA, 2mM EDTA), followed by incubation with PE-labeled mouse anti-human IgG antibody (BD bioscience #555787). Flow cytometry analysis was done on a BD LSR analyzer. Antibody binding was expressed as Mean Fluorescence Intensity (MFI) of PE fluorophore. A: The bivalent binding affinity of anti-CD79b clone 2F2 comparing to monovalent binding affinity of anti-CD79b clones 2F2, SN8v28, and SN8new (as K&H TDBs); B: bivalent binding affinity of anti-CD79b clones CD79b.F6 and CD79b.A7 comparing to monovalent binding of anti-CD79b clones CD79b.F6, CD79b.A7, and SN8v28 (as bisfab or K&H TDBs); C: bivalent binding affinity of anti-CD79b clone CD79b.A7.v14 comparing to monovalent binding of anti-CD79b clone CD79b.A7.v14 (as K&H TDBs).
(§2) The monovalent and bivalent anti-CD79b antibody binding affinity was also evaluated in order to better understand the contribution, if any, to B cell killing activity. Binding affinity of dual arm, bivalent anti-CD79b antibodies and bispecific anti-CD79b/ CD3 antibodies using BJAB cells were also analyzed. […]

human CD79b [3] = biological target: T1, human CD79b; assay: cell-based or functional assay
human CD79b [4] = biological target: T1, human CD79b; assay: FACS on BJAB-luciferase cells, bivalent binding, PE anti-human IgG
Method: At the end of the incubation, cells were washed with ice cold FACS buffer (1× PBS, 2% BSA, 2 mM EDTA), followed by incubation with PE-labeled mouse anti-human IgG antibody (BD bioscience #555787). Flow cytometry analysis was done on a BD LSR analyzer. Bivalent binding was expressed as Mean Fluorescence Intensity (MFI) of PE fluorophore.

human CD79b [5] = biological target: T1, human CD79b; assay: FACS on BJAB cells (FIG. 3B); dual arm, bivalent antibody
Method: as §1, §2

human CD79b [6] = biological target: T1, human CD79b; assay: FACS on BJAB cells, PE-labeled mouse anti-human IgG detection, MFI [panel A]
Method: as §1, §2

[7] = biological target: B4; assay: FACS on BJAB cells, peptide competition (data not shown)
human CD79b [8] = biological target: T1, human CD79b; assay: FACS on BJAB cells (FIG. 3C)
Method: as §1
Binding affinity of the humanized CD79.A7.v14 of monovalent and bivalent was tested as described above.

[9] = biological target: T2, human CD79b fused with an Fc domain at …; assay: Biacore T100 SPR, bivalent IgG over CD79b-Fc immobilized at low density; apparent affinity
Method: The binding affinity of the antibodies in this section was determined by BIAcore™ T100. Briefly, BIAcore™ research grade CM5 chips were activated with 1-ethyl-3-(3-dimethylaminopropyl) carbodiimide (EDC) and N-hydroxysuccinimide (NHS) reagents according to the supplier's instructions. Human […] fused with an Fc domain at the C-terminus was coupled to the chips. To achieve more monovalent binding events, low density of ˜12 response units (RU) was immobilized in each flow cell. For measuring the apparent affinity of the antibodies, ˜370 RU of the antigen was immobilized. Unreacted coupling groups were blocked with 1M ethanolamine. For kinetics measurements, three-fold serial dilutions of antibody was injected in PBS-T buffer (0.05% surfactant P20 in PBS) at 25° C. with a flow rate of 30 μl/min. 10 mM glycine, pH 1.7 was used as regeneration buffer at 30 ul/min flow rate for 1 minute. Association rates (kₒₙ) and dissociation rates (koff) were calculated using a 1:1 Langmuir binding model (BIAcore™ T100 Evaluation Software version 2.0). The equilibrium dissociation constant (Kd) was calculated as the ratio koff/kₒₙ.
Thus additional humanized variants were made to evaluate the contribution of mouse framework vernier positions towards binding. Six additional light chains (VL1: CDRs graft+(Y36L), VL2: CDRs graft+(Y36L+L46C), VL3: CDRs graft+(I2V+Y36L+L46C), VL4: CDRs graft+(Y36L+L46S), VL5: CDRs graft+(I2V+Y36L+L46S), VL6: CDRs graft+(L46S)) and seven additional heavy chains (VH1a: CDRs graft+(A93S), VH1b: CDRs graft+(R71V+A93S), VH1c: CDRs graft+(V67A+I69L+R71V+A93S), VH1d:CDRs graft+(V67A+I69L+R71V+T73K+A93S), VH1e: CDRs graft+(V67A+R71V+A93S), VH1f: CDRs graft+(I69L+R71V+A93S), and VH1g: CDRs graft+(V67A+I69L)) were constructed and combined to generate the variants in Table 2. Based on the affinities of these variants, Y36L and L46C in the light chain appear to be key mouse vernier residues. […] In the heavy chain, V67A, I69L, R71V and A93S also contributed to CD79b binding; however R71V appeared to be the key mouse vernier residues based on this mutational analysis.

B1
binding result [1]: no binding

B2
EC50 (human CD79b [2]): 1.4 µg/mL
endogenous B cell killing EC50 (human CD79b [3]): 0.012 µg/mL

B3
EC50 (human CD79b [4]): 0.124 µg/mL

B4
EC50 (human CD79b [5]): 0.31 µg/mL

B5
EC50 (read off the curve) (human CD79b [6]): ~1 µg/mL

B6
binding result [7]: binds

B7
EC50 (human CD79b [8]): 0.0468 µg/mL
Kd [9]: 5 nM
EC50 (human CD79b [4]): 0.068 µg/mL

B8
EC50 (human CD79b [8]): 0.22 µg/mL

B9
Kd [9]: 8 nM

B10
Kd [9]: 4 nM

B11
Kd [9]: 8 nM

B12
Kd [9]: 5 nM

B13
Kd [9]: 4 nM
